Reference: paper PMC4471001

What was measured:
[1] = biological target: human importin α5 (human) (UniProt P52294); test: fluorescence polarisation; S2 Fig D; method not named for this panel, taken as the paper's fluorescence polarization assay; dark and blue light, binding light independent
[2] = biological target: human importin α5 (human) (UniProt P52294); test: fluorescence polarisation; competition, dark (value read after 5 minutes in absence of light); 25 nM TAMRA peptide …, 50 mM Tris pH 7.5, 100 mM NaCl, 1 mM DTT, 25°C; Kd from IC50
[3] = biological target: human importin α7 (human) (UniProt O60684); test: as above
[4] = biological target: human importin α5 (human) (UniProt P52294); test: fluorescence polarisation; competition, under blue light (455 nm, 6 mW/cm^2; value read after 2 minutes of illumination); 25 nM TAMRA peptide …, 50 mM Tris pH 7.5, 100 mM NaCl, 1 mM DTT, 25°C; Kd from IC50
[5] = biological target: human importin α7 (human) (UniProt O60684); test: as above

| Kd [1] | Kd [2] | Kd [3] | Kd [4] | Kd [5] | Substance |
| --- | --- | --- | --- | --- | --- |
| 1 nM | – | – | – | – | AsLOV2cMyc (from UniProt O49003 404-546) |
| – | 1500 nM | 2000 nM | 250 nM | 340 nM | AsLOV2cNLS (from UniProt O49003 404-546) (designed binder) |
